Data published in patent US20240343814A1.

Columns and labels:
[1] = target: Recombinant human his-tagged IGF 1R extracellular domain protein (human) (UniProt P08069); assay: SPR, captured IgG, IGF-1R ECD-his analyte, dissociation pH 7.4
[2] = target: Recombinant human his-tagged IGF 1R extracellular domain protein (human) (UniProt P08069); assay: SPR, captured IgG, IGF-1R ECD-his analyte, dissociation pH 6

Binder | Kd [1] [nM] | koff [1] [s⁻¹] | kon [1] [M⁻¹ s⁻¹] | Kd [2] [nM] | koff [2] [s⁻¹] | kon [2] [M⁻¹ s⁻¹]
VRDN-02545 (antibody, V domains shown) VH: EVQLVQSGGGLVKPGGSLRLSCAASGFTFSSFAMHWVRQAPGKGLEWISVIDTRGATYYADSVKGRFTISRDNAKNSLYLQMNSLRAEDTAVYYCARLGNFYYGMDVWGQGTTVTVSS VL: EIVLTQSPGTLSVSPGERATLSCRASQSIGSSLHWYQQKPGQAPRLLIKYASQSLHGIPDRFSGSGSGTDFTLTISRLEPEDFAVYYCHQSSRLPHTFGQGTKVEIK | 0.622 | 3.03e-05 | 48700 | 0.027 | 1e-06 | 37000
VRDN-02546 (antibody, V domains shown) VH: EVQLVQSGGGLVKPGGSLRLSCAASGFTFSSFAMHWVRQAPGKGLEWISVIDTRGATYYADSVKGRFTISRDNAKNSLYLQMNSLRAEDTAVYYCARLGNFYYGMDVWGQGTTVTVSS VL: EIVLTQSPGTLSVSPGERATLSCRASQSIGSSLHWYQQKPGQAPRLLIKYASQSLSGIPDRFSGSGSGTDFTLTISRLEPEDFAVYYCHHSSRLPHTFGQGTKVEIK | 0.491 | 5.94e-05 | 121000 | 0.0259 | 1e-06 | 38600
VRDN-02547 (antibody, V domains shown) VH: EVQLVQSGGGLVKPGGSLRLSCAASGFTFSSFAMHWVRQAPGKGLEWISVIDTRGATYYADSVKGRFTISRDNAKNSLYLQMNSLRAEDTAVYYCARLGNFYYGMDVWGQGTTVTVSS VL: EIVLTQSPGTLSVSPGERATLSCRASQSIGSSLHWYQQKPGQAPRLLIKYASQSLSGIPDRFSGSGSGTDFTLTISRLEPEDFAVYYCHQHSRLPHTFGQGTKVEIK | 0.0084 | 1e-06 | 119000 | 0.0251 | 1e-06 | 39800
VRDN-02548 (antibody, V domains shown) VH: EVQLVQSGGGLVKPGGSLRLSCAASGFTFSSFAMHWVRQAPGKGLEWISVIDTRGATYYADSVKGRFTISRDNAKNSLYLQMNSLRAEDTAVYYCARLGNFYYGMDVWGQGTTVTVSS VL: EIVLTQSPGTLSVSPGERATLSCRASQSIGSSLHWYQQKPGQAPRLLIKYASQSLSGIPDRFSGSGSGTDFTLTISRLEPEDFAVYYCHQSHRLPHTFGQGTKVEIK | 0.721 | 8.72e-05 | 121000 | 0.0251 | 1e-06 | 39800
VRDN-02549 (antibody, V domains shown) VH: EVQLVQSGGGLVKPGGSLRLSCAASGFTFSSFAMHWVRQAPGKGLEWISVIDTRGATYYADSVKGRFTISRDNAKNSLYLQMNSLRAEDTAVYYCARLGNFYYGMDVWGQGTTVTVSS VL: EIVLTQSPGTLSVSPGERATLSCRASQSIGSSLHWYQQKPGQAPRLLIKYASQSLSGIPDRFSGSGSGTDFTLTISRLEPEDFAVYYCHQSSHLPHTFGQGTKVEIK | 0.327 | 3.89e-05 | 119000 | 0.0251 | 1e-06 | 39800
VRDN-02550 (antibody, V domains shown) VH: EVQLVQSGGGLVKPGGSLRLSCAASGFTFSSFAMHWVRQAPGKGLEWISVIDTRGATYYADSVKGRFTISRDNAKNSLYLQMNSLRAEDTAVYYCARLGNFYYGMDVWGQGTTVTVSS VL: EIVLTQSPGTLSVSPGERATLSCRASQSIGSSLHWYQQKPGQAPRLLIKYASQSLSGIPDRFSGSGSGTDFTLTISRLEPEDFAVYYCHQSSRHPHTFGQGTKVEIK | 0.131 | 2.09e-05 | 160000 | 0.027 | 1e-06 | 37000
VRDN-02551 (antibody, V domains shown) VH: EVQLVQSGGGLVKPGGSLRLSCAASGFTFSSFAMHWVRQAPGKGLEWISVIDTRGATYYADSVKGRFTISRDNAKNSLYLQMNSLRAEDTAVYYCARLGNFYYGMDVWGQGTTVTVSS VL: EIVLTQSPGTLSVSPGERATLSCRASQSIGSSLHWYQQKPGQAPRLLIKYASQSLSGIPDRFSGSGSGTDFTLTISRLEPEDFAVYYCHQSSRLHHTFGQGTKVEIK | 0.771 | 6.38e-05 | 82800 | 0.0348 | 1e-06 | 28700
